{"source": "paper PMC8643695", "about": "(Nucleic Acids Research, 2021)", "key": {"[1]": {"target": "C9A SpCstR C9A (Streptococcus pneumoniae D39) (UniProt A0A0H2ZNA4)", "assay": "fluorescence anisotropy", "conditions": "10 nM dsDNA, 25 mM Tris-HCl, 200 mM NaCl, 2 mM EDTA, 2 mM TCEP, pH 8.0, 25 C"}, "[2]": {"tested_on": "SmCstR (Streptococcus mitis SVGS_061)", "assay": "fluorescence anisotropy", "conditions": "10 nM dsDNA, 25 mM Tris-HCl, 200 mM NaCl, 2 mM EDTA, 2 mM TCEP, pH 8.0, 25 C"}, "C9R SpCstR": {"target": "C9R SpCstR (Streptococcus pneumoniae D39, UniProt A0A0H2ZNA4 1-85, C9R)", "assay": "fluorescence anisotropy"}, "crystal structure [3]": {"target": "the molecule itself", "assay": "crystal structure"}, "crystal structure [4]": {"target": "the molecule itself", "assay": "crystal structure", "remark": "listed apart in the source"}, "crystal structure [5]": {"target": "the molecule itself", "assay": "crystal structure", "remark": "listed apart in the source"}}, "note": "Where two headings read alike, the source gives them in different places.", "data": [{"molecule": "Sp adcA (AdcR) operator", "values": [{"measurement": "Ka", "setting": "[1]", "value": 490000, "unit": "M⁻¹"}]}, {"molecule": "TACCTCCAAATATACCCTTATGGGGTATATTAAA (double strand) [S. mitis cst operator]", "values": [{"measurement": "Ka", "setting": "[2]", "value": "1.4e+08", "unit": "M⁻¹"}]}, {"molecule": "S. mitis cst operator (dsDNA) DNA 1: TACCTCCAAATATACCCTTATGGGGTATATTAAA DNA 2: TTTAATATACCCCATAAGGGTATATTTGGAGGTA", "values": [{"measurement": "binding result", "setting": "C9R SpCstR", "value": "binds"}]}, {"molecule": "selenomethionine (SeMet)-substituted C9A SpCstR (natural protein, Streptococcus pneumoniae D39, selenomethionine in place of methionine) TNSKYITALKRSEGQLRGIQKMIEGDRDCADIVTQLTAVRSSVERVIEMIITENLTECINQPLDDSEAQKERLEKAIRYLIKRK", "values": [{"measurement": "stoichiometry N", "setting": "crystal structure [3]", "value": 4}]}, {"molecule": "C9A/N55A S. pneumoniae CstR (locus tag SPD_0073) (natural protein, Streptococcus pneumoniae D39) TNSKYITALKRSEGQLRGIQKMIEGDRDCADIVTQLTAVRSSVERVIEMIITEALTECINQPLDDSEAQKERLEKAIRYLIKRK", "values": [{"measurement": "stoichiometry N", "setting": "crystal structure [4]", "value": 4}]}, {"molecule": "C9A S. pneumoniae CstR (locus tag SPD_0073) (natural protein, Streptococcus pneumoniae D39) TNSKYITALKRSEGQLRGIQKMIEGDRDCADIVTQLTAVRSSVERVIEMIITENLTECINQPLDDSEAQKERLEKAIRYLIKRK", "values": [{"measurement": "stoichiometry N", "setting": "crystal structure [5]", "value": 6}]}]}
